Measured values as given in PMC4157081.
“And” between values parts separate entries of the source, which are not always exact repeats. Identical values can stand only once.

Columns and labels:
Assay in all cases: cryo-EM structure
[1] = molecular target: CUS-3 tailspike protein (gp9 by the name of the P22 homologue) (bacteriophage CUS-3)
[2] = molecular target: CUS-3 tail needle protein (gp26 by the name of the P22 homologue) (bacteriophage CUS-3)
[3] = molecular target: CUS-3 portal protein (gp1 by the name of the P22 homologue) (bacteriophage CUS-3)
[4] = molecular target: CUS-3 coat protein (CP, major capsid protein; gp5 by the name of the P22 homologue) (bacteriophage CUS-3)

Q: For “CUS-3 tailspike protein (gp9 by the name of the P22 homologue) (natural protein)”, which stoichiometry N [1] is on record?
A: Its stoichiometry N is 3.

Q: “CUS-3 tail needle protein (gp26 by the name of the P22 homologue) (natural protein)” was tested. Which stoichiometry N [2] did it give?
A: The stoichiometry N was 3.

Q: How did the stoichiometry N [3] turn out when “CUS-3 portal protein (gp1 by the name of the P22 homologue) (natural protein)” was run?
A: The stoichiometry N was 12.

Q: For “CUS-3 coat protein (CP, major capsid protein; gp5 by the name of the P22 homologue) (natural protein)”, which stoichiometry N [4] is on record?
A: Its stoichiometry N is 5 and 6.
